The target in the test is human c-type lysozyme purified from human neutrophils (HL) (human) (UniProt P61626).
UniProt P61626, sequence (P61626 19-148): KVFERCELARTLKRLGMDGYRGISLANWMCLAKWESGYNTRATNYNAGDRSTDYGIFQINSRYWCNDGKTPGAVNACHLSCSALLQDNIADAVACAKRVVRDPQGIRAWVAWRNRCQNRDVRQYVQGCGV

As for “recombinant, mature Neisseria gonorrhoeae Adhesin Complex Protein (rACP) (natural protein)”, the percent of HL hydrolytic activity restored in the presence of rACP by pooled terminal RO serum (polyclonal) of mice immunized with rACP alone came out at 19.3%, the percent of HL hydrolytic activity restored in the presence of rACP by pooled terminal RO serum (polyclonal) of mice immunized with rACP+CpG is 59.9%, the percent of HL hydrolytic activity restored in the presence of rACP by pooled terminal SV serum (polyclonal) of mice immunized with rACP alone turned out to be 30.1% and the percent of HL hydrolytic activity restored in the presence of rACP by pooled terminal SV serum (polyclonal) of mice immunized with rACP+CpG turned out to be 75.2%.

For the origin of these results see PMC12045373.
